Assay results from paper PMC3169410 (Acta Crystallographica Section F: Structural Biology and …, 2011).

Target: the molecule itself
Assay: crystal structure

B1: BrabA.11339.a, putative β-lactamase-like protein from Brucella melitensis biovar Abortus 2308 (natural protein)
chain: TSPRNCLRFTLLGCGSSPGVPRINGDWGKCDPKNPKNRRRRASLLVERYDAEGNNTVVVIDTGPDFRMQMIDSGVHMLDAAVYTHPHADHIHGIDDLRTYVVDNGRLMDVYANRLTRNRLYDTFGYCFETPVGSSYPPILSMHDIAPETPFSIEGAGGAIRFEPFSQVHGDIESLGFRIGSVVYCTDVSAFPEQSLQYIKDADVLIIGALQYRPHPSHFSLGEALEWIEKLSPKRAILTHMHVPLDYETVMRETPHHVEPGYDGLRFEVAV
notes: also called BAB1_1016
- stoichiometry N: 2
